T1: CYN1-EAT1 (Oryza sativa (rice), UniProt Q7X8R0 1-464)
T1 construct: BiFC construct expressed in rice protoplasts
T1 sequence: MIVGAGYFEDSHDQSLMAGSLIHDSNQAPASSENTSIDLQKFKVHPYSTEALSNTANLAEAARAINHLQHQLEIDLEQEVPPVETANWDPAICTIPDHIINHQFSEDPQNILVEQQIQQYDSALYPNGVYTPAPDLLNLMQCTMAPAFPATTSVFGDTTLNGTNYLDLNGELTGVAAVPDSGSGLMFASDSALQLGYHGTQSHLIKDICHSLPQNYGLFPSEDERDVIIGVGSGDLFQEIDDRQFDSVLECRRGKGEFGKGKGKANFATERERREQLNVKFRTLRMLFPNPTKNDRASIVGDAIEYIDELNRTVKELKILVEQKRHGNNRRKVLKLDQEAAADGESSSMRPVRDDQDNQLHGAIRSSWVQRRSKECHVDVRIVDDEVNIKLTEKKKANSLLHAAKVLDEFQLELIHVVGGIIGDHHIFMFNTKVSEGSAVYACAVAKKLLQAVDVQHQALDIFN

B1: transcription factor bHLH142 (other)
chain: MYHPQCELLMPLESLEMDVGQSHLAAAVAAAMPGELNFHLLHSLDAAAAAASSTAASASSQPTVDYFFGGADQQPPPPAAMQYDQLAAPHHHQTVAMLRDYYGGHYPPAAAAAAATEAYFRGGPRTAGSSSLVFGPADDESAFMVGPFESSPTPRSGGGRKRSRATAGFHGGGPANGVEKKEKQRRLRLTEKYNALMLLIPNRTKEDRATVISDAIEYIQELGRTVEELTLLVEKKRRRREMQGDVVDAATSSVVAGMDQAAESSEGEVMAAAAMGAVAPPPRQAPIRSTYIQRRSKETFVDVRIVEDDVNIKLTKRRRDGCLAAASRALDDLRLDLVHLSGGKIGDCHIYMFNTKIHSGSPVFASAVASRLIEVVDEY
notes: Rice bHLH transcription factor as named in general statements and as 35S-driven effector in the EAT1pro-Luc protoplast assay; also called Os01g0293100
B2: NYN1-bHLH142 (other, not shown: large carriers)
chain: B1 chain
notes: BiFC construct expressed in rice protoplasts
B3: ETERNAL TAPETUM 1 (EAT1) (other)
chain: T1 sequence

Columns and labels:
TAPETUM …ON …ON (TDR1) = TAPETUM …ON …ON (TDR1) (Oryza sativa (rice), UniProt Q6YUS3 1-552); assay: cell-based or functional assay
ETERNAL TAPETUM 1 (EAT1) = target: B3; assay: yeast two-hybrid and BiFC (FIG. 13)
CYN1-EAT1 = target: T1, CYN1-EAT1; assay: BiFC in rice protoplasts
Procedure: Next, the tested genes were introduced into pSAT5-DEST_CYN1 and pSAT4(A)-DEST_NYN1. Ballistic bombardment-mediated transient transformation in rice protoplasts was carried out following a previously published protocol³⁶. Florescence images were photographed on a LSM 780 Plus ELYRA S.1 confocal microscope with Plan-Apochromat 40×/1.4 oil objective lens (Zeiss, Germany).

B1
Luc expression from the EAT1 promoter (EAT1pro-Luc), transient assay in rice protoplasts (TAPETUM …ON …ON (TDR1)): ≤ 30 fold | binding result (ETERNAL TAPETUM 1 (EAT1)): no binding

B2
binding result (CYN1-EAT1): no binding

B3
Luc expression from the EAT1 promoter (EAT1pro-Luc) with bHLH142, TDR1 and additional EAT1, transient assay in rice protoplasts (TAPETUM …ON …ON (TDR1)): 18 fold
